# Target: Stat1α (human)
# Test: co-immunoprecipitation with anti-FLAG M2 from COS cells with or without EGF, blot with Stat1 antiserum
substance,measurement,value
FLAG-tagged Stat3,"amount of Stat1 coprecipitated, treated cells against untreated cells",5 fold

# Reference: US5716622
